Source: publication doi:10.1101/2024.05.01.592117

What was measured:
[1] = target: 40S small ribosomal subunit (salt-washed, purified) (human) (UniProt P23396); assay: fluorescence polarisation
[2] = target: 43S preinitiation complex (40S + eIFs 1, 1A, 5, 3j, eIF2-TC and eIF3) (human) (UniProt P23396); assay: native gel or EMSA
[3] = target: 43S preinitiation complex (40S + eIFs 1, 1A, 5, 3j, eIF2-TC and eIF3) (human) (UniProt P23396); assay: fluorescence polarisation

Chain of fluorescence-labeled Pdcd4-NTD (FL-Pdcd4-NTD, residues 1-156) (Q53EL6 1-156): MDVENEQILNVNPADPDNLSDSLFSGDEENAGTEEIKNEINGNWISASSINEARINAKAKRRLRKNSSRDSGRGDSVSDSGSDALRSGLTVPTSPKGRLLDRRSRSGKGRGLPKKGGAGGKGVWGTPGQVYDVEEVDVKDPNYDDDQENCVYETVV
Chain of Pdcd4-NTD (residues 1-156), unlabeled (Q53EL6 1-156): as above
Chain of fluorescence-labeled full-length Pdcd4 (FL-Pdcd4) (Q53EL6 whole entry): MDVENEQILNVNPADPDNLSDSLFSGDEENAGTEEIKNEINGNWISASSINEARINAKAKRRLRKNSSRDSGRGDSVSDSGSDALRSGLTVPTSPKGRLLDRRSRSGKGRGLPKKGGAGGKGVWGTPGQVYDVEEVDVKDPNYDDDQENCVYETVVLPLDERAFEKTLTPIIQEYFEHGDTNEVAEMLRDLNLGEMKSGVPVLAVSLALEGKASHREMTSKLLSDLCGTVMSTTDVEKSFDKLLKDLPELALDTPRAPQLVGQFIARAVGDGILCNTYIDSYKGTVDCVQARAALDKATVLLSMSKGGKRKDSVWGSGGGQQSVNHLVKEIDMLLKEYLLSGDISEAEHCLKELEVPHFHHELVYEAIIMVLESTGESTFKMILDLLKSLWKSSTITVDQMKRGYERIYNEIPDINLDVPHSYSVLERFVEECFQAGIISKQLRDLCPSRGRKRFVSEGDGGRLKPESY
Chain of Pdcd4 (programmed cell death 4), wild type, residues 1-469 (Q53EL6 whole entry, the tested form may be a part): as the sequence (Q53EL6 whole entry) above

| percent binding compared to the 40S (lane 2) [2] [%] | fold reduction in affinity against the 40S alone [1] [fold] | fold reduction in affinity against the 40S alone [3] [fold] | Substance | Ki [1] [nM] |
| --- | --- | --- | --- | --- |
| – | – | – | Pdcd4 (programmed cell death 4), wild type, residues 1-469 (from UniProt Q53EL6 1-469) (natural protein) | 23 |
| – | – | – | Pdcd4-NTD (residues 1-156), unlabeled (from UniProt Q53EL6 1-156) (domain or fragment) | 21 |
| < 20 | – | – | fluorescence-labeled full-length Pdcd4 (FL-Pdcd4) (from UniProt Q53EL6 1-469) (natural protein) | – |
| < 20 | > 10 | > 100 | fluorescence-labeled Pdcd4-NTD (FL-Pdcd4-NTD, residues 1-156) (from UniProt Q53EL6 1-156) (domain or fragment) | – |
